Laboratory results taken from US20050037969A1 (ARBOR VITA, published 2005).
Ends that are not written are not given here. * marks the point of attachment. Biotin = O=C1N[C@H]2[C@H](CS[C@H]2CCCCC(=O)*)N1

Assays:
Assay in all cases: A/G assays
[1] = target: T1, GST-CASK PDZ domain fusion protein (Homo sapiens, UniProt O14936 486-575)
T1 construct: also called Homo sapiens CASK protein
T1 sequence: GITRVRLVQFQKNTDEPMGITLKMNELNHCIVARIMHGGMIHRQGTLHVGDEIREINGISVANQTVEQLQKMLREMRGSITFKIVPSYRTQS

[2] = target: T2, GST-LIM protein PDZ domain fusion protein (Human, UniProt Q96HC4 2-85)
T2 construct: also called Human LIM protein; not shown: glutathione S-transferase encoded by vector pGEX-3X (Pharmacia)
T2 sequence: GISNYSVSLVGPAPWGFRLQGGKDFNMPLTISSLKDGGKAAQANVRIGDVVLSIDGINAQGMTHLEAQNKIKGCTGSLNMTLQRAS

[3] = target: T3, GST-prIL16 fusion protein (PDZ domains 1-2) (Homo sapiens (Human), UniProt Q14005 1111-1324)
T3 construct: also called putative interleukin 16 precursor; not shown: glutathione S-transferase encoded by vector pGEX-3X (Pharmacia)
T3 sequence: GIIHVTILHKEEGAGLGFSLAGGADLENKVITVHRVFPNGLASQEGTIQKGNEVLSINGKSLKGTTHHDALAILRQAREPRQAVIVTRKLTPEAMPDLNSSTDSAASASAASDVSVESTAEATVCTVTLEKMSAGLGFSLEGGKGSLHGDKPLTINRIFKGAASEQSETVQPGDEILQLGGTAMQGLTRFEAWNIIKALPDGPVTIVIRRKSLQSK

[4] = target: T4, GST-cytohesin binding protein PDZ domain fusion protein (Homo sapiens (Human), UniProt O60759 74-165)
T4 construct: also called CBP; not shown: glutathione S-transferase encoded by vector pGEX-3X (Pharmacia)
T4 sequence: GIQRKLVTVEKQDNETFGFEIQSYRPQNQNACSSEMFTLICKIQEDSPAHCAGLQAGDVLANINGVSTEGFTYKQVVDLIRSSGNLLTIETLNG

[5] = target: T5, GST-mouse syntenin fusion protein (Mus musculus, UniProt O08992 108-286)
T5 construct: also called Mus musculus Syntenin; not shown: glutathione S-transferase encoded by vector pGEX-3X (Pharmacia)
T5 chain: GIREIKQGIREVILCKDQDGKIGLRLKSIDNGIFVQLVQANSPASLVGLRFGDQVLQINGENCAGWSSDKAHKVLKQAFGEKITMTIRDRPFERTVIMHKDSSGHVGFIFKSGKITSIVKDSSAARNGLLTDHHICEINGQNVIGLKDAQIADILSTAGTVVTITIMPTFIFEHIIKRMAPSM

[6] = target: T6, GST-TAX-IP40 PDZ domain fusion protein (human, UniProt Q6B4M5 150-252 (rat entry))
T6 construct: also called TAX40; not shown: glutathione S-transferase encoded by vector pGEX-3X (Pharmacia)
T6 sequence: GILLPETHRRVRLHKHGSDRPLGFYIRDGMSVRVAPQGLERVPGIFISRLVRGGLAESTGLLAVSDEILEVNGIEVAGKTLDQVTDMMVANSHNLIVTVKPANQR

[7] = target: T7, MINT3 PDZ-GST fusion protein
T7 construct: Order of GST and PDZ part and limits not seen in the excerpts
T7 chain: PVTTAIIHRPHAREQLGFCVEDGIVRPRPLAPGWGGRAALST

[8] = target: T8, K559 PDZ-GST fusion protein (Homo sapiens (Human), UniProt Q9Y6V0 4489-4593)
T8 construct: Order of GST and PDZ part and limits not seen in the excerpts
T8 sequence: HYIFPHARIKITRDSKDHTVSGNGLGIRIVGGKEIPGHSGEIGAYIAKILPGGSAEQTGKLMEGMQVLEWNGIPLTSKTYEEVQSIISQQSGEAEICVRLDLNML

[9] = target: T9, PICK1 PDZ-GST fusion protein (Bos taurus (Bovine), UniProt Q2T9M1 17-105)
T9 construct: Order of GST and PDZ part and limits not seen in the excerpts
T9 sequence (Q2T9M1 other isoform, or with tags, fused parts or gaps limits assumed): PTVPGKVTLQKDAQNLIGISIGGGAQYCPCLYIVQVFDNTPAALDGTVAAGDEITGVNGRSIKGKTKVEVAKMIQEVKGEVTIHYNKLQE

[10] = target: T10, K858 PDZ-GST fusion protein (Homo sapiens (Human), UniProt Q8WWI1 1038-1131)
T10 construct: Order of GST and PDZ part and limits not seen in the excerpts
T10 sequence: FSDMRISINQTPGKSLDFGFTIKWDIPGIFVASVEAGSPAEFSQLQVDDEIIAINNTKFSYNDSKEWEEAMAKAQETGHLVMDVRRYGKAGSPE

[11] = target: T11, ConEn PDZ-GST fusion protein (Homo sapiens (Human), UniProt Q969H4 193-287)
T11 construct: The label ConEn is not explained in the excerpts
T11 sequence: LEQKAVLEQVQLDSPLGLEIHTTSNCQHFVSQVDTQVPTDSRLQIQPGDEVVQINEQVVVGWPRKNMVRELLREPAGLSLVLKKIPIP

[12] = target: T12, NSP PDZ-GST fusion protein (Homo sapiens (Human), UniProt Q92743 370-466)
T12 construct: The label NSP is not explained in the excerpts
T12 sequence (Q92743 other isoform, or with tags, fused parts or gaps limits assumed): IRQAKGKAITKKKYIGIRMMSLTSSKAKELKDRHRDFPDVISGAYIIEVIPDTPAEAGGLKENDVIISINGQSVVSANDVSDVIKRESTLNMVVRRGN

[13] = target: T13, NOS1 PDZ-GST fusion protein (Homo sapiens (Human), UniProt P29475 11-100)
T13 construct: Order of GST and PDZ part and limits not seen in the excerpts
T13 sequence (P29475 11-100 limits assumed): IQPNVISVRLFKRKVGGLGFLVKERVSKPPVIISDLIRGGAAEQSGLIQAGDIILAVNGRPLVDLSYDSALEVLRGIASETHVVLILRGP

[14] = target: T14, GST-PDZK1 fusion protein (PDZ domains 2-4) (Homo sapiens, UniProt Q5T2W1 134-457)
T14 construct: not shown: glutathione S-transferase encoded by vector pGEX-3X (Pharmacia)
T14 sequence: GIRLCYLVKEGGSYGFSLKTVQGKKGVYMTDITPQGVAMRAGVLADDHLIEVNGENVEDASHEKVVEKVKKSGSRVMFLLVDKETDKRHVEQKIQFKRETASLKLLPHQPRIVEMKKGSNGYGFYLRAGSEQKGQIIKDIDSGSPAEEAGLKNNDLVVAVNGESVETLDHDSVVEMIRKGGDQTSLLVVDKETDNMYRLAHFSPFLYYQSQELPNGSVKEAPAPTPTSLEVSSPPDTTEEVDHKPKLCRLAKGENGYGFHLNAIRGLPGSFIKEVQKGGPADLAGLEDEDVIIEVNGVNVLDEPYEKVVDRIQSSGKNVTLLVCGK

Measured: binding result

B1: BLR-1 C-terminal peptide AA45L, biotinylated (peptide)
peptide: Biotin-PSWRRSSLSESENATSLTTF
notes: also called CXCR5
no binding: [1] | [2] | [3] | [4] | [5] | [6] | [7] | [8] | [9] | [10] | [11] | [12] | [13]

B2: DOCK2 C-terminal peptide AA40L, biotinylated (peptide)
peptide: Biotin-LASKSAEEGKQIPDSLSTDL
no binding: [1] | [2] | [3] | [4] | [14] | [5] | [6] | [7] | [8] | [9] | [10] | [11] | [12] | [13]

B3: CD95 (Fas) C-terminal peptide AA13L, biotinylated (peptide)
peptide: Biotin-KDITSDSENSNFRNEIQSLV
notes: also called CD95 (Apo-1/Fas); AAI3L
no binding: [1] | [2] | [3] | [4] | [14] | [5] | [6] | [7] | [8] | [9] | [10] | [11] | [12] | [13]

B4: CD49E C-terminal peptide AA11L, biotinylated (peptide)
peptide: Biotin-PYGTAMEKAQLKPPATSDA
notes: also called CD49E (alpha-4)
no binding: [1] | [2] | [3] | [4] | [14] | [5] | [6] | [7] | [8] | [9] | [10] | [11] | [12] | [13]

B5: KV1.3 C-terminal peptide AA33L, biotinylated (peptide)
peptide: Biotin-TTNNNPNSAVNIKKIFTDV
no binding: [1] | [2] | [3] | [4] | [14] | [5] | [6] | [7] | [8] | [9] | [10] | [11] | [12] | [13]

B6: CD46 (Form 1) C-terminal peptide AA10L, biotinylated (peptide)
peptide: Biotin-KKGTYLTDETHREVKFTSL
no binding: [1] | [2] | [3] | [4] | [14] | [5] | [6] | [7] | [8] | [9] | [10] | [11] | [12] | [13]

B7: CD3n C-terminal peptide AA4L, biotinylated (peptide)
peptide: Biotin-SVFSIPTLWSPWPPSSSSQL
notes: also called CD3η; CD3-eta
no binding: [1] | [2] | [3] | [4] | [14] | [5] | [6] | [7] | [8] | [9] | [10] | [11] | [12] | [13]
